Source: patent US20030077661A1 (ST JUDE CHILDREN S RESEARCH HOSPITAL, published 2003)

T1: 6×-Histidine (6×-His) fusion protein containing the C-terminal kinase domain of ATM, residues 2712-3056 (Homo sapiens (Human), UniProt Q13315 2712-3056)
T1 construct: also called ATM kinase domain; not shown: 6×-His tag from pET28
T1 sequence: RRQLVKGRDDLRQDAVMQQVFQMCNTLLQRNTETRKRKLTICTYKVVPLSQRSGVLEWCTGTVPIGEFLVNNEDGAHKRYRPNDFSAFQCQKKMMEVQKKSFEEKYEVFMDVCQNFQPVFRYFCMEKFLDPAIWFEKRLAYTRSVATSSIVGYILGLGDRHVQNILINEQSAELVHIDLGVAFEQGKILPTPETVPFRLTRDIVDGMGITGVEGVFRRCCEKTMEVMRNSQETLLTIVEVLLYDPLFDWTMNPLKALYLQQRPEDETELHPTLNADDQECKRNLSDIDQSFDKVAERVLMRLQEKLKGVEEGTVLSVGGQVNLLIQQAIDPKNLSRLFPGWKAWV


How the values were obtained:
[1] = target: T1, 6×-Histidine (6×-His) fusion protein …; assay: co-expression in E. coli; kinase domain remained insoluble
Excerpt: A further aspect of the invention provides a method of producing soluble ATM kinase by contacting the kinase domain of ATM with a fragment of ATM kinase containing Ser¹⁹⁸¹. […] Although the kinase domain was insoluble in bacteria when co-transfected with GST alone or a GST fusion with the ATM target peptide p53 (residues 1-101), a significant percentage was stabilized and solubilized in the presence of the GST-ATM¹⁹⁶¹⁻²⁰⁴⁶ fusion protein. The kinase domain was also solubilized in the presence of the GST-ATM¹⁹⁶¹⁻²⁰⁴⁶ fusion protein containing Ser¹⁹⁸¹→Ala, but remained insoluble in the presence of phosphorylation-mimic fusion peptides, Ser¹⁹⁸¹→Asp and Ser¹⁹⁸¹→Glu. Furthermore, the soluble kinase domain co-purified on glutathione-agarose with the GST-ATM¹⁹⁶¹⁻²⁰⁴⁶ fusion proteins containing wild-type sequence or Ser¹⁹⁸¹→Ala.

[2] = target: the molecule itself; assay: SDS-PAGE of the purified fragment (self-association)
Protocol: As the ATM kinase domain interacts stably with the domain containing the autophosphorylation site, it was determined whether a truncated recombinant ATM molecule that included the phosphorylation and kinase domains would fold properly and have kinase activity. A galactose-inducible pYES plasmid containing 6×-His-FLAG®-tagged ATM¹⁹²³⁻³⁰⁵⁶ was transfected into Saccharomyces cerevisiae and a soluble ATM fragment was recovered. The polypeptide was purified by anti-FLAG® affinity chromatography.

| binding result [1] | Binder | binding result [2] |
| --- | --- | --- |
| no binding | GST-ATM^1961-2046 phosphorylation-mimic fusion peptide Ser^1981→Asp (other, not shown: glutathione-S-transferase (GST) as encoded by pGEX-4T-1) YADKKSMDDQEKRSLAFEEGDQSTTISSLSEKSKEETGISLQDLLLEIYRSIGEPDSLYGCGGGKMLQPITRLRTYEHEAMWGKAL | – |
| no binding | GST-ATM^1961-2046 phosphorylation-mimic fusion peptide Ser^1981→Glu (other, not shown: glutathione-S-transferase (GST) as encoded by pGEX-4T-1) YADKKSMDDQEKRSLAFEEGEQSTTISSLSEKSKEETGISLQDLLLEIYRSIGEPDSLYGCGGGKMLQPITRLRTYEHEAMWGKAL | – |
| – | 6×-His-FLAG®-tagged ATM^1923-3056 (enzyme, Expressed in S. cerevisiae from pYES2; also called soluble ATM fragment; truncated recombinant ATM; not shown: N-terminal 6×-His and FLAG tags) SSGTIFNDAFWLDLNYLEVAKVAQSCAAHFTALLYAEIYADKKSMDDQEKRSLAFEEGSQSTTISSLSEKSKEETGISLQDLLLEIYRSIGEPDSLYGCGGGKMLQPITRLRTYEHEAMWGKALVTYDLETAIPSSTRQAGIIQALQNLGLCHILSVYLKGLDYENKDWCPELEELHYQAAWRNMQWDHCTSVSKEVEGTSYHESLYNALQSLRDREFSTFYESLKYARVKEVEEMCKRSLESVYSLYPTLSRLQAIGELESIGELFSRSVTHRQLSEVYIKWQKHSQLLKDSDFSFQEPIMALRTVILEILMEKEMDNSQRECIKDILTKHLVELSILARTFKNTQLPERAIFQIKQYNSVSCGVSEWQLEEAQVFWAKKEQSLALSILKQMIKKLDASCAANNPSLKLTYTECLRVCGNWLAETCLENPAVIMQTYLEKAVEVAGNYDGESSDELRNGKMKAFLSLARFSDTQYQRIENYMKSSEFENKQALLKRAKEEVGLLREHKIQTNRYTVKVQRELELDELALRALKEDRKRFLCKAVENYINCLLSGEEHDMWVFRLCSLWLENSGVSEVNGMMKRDGMKIPTYKFLPLMYQLAARMGTKMMGGLGFHEVLNNLISRISMDHPHHTLFIILALANANRDEFLTKPEVARRSRITKNVPKQSSQLDEDRTEAANRIICTIRSRRPQMVRSVEALCDAYIILANLDATQWKTQRKGINIPADQPITKLKNLEDVVVPTMEIKVDHTGEYGNLVTIQSFKAEFRLAGGVNLPKIIDCVGSDGKERRQLVKGRDDLRQDAVMQQVFQMCNTLLQRNTETRKRKLTICTYKVVPLSQRSGVLEWCTGTVPIGEFLVNNEDGAHKRYRPNDFSAFQCQKKMMEVQKKSFEEKYEVFMDVCQNFQPVFRYFCMEKFLDPAIWFEKRLAYTRSVATSSIVGYILGLGDRHVQNILINEQSAELVHIDLGVAFEQGKILPTPETVPFRLTRDIVDGMGITGVEGVFRRCCEKTMEVMRNSQETLLTIVEVLLYDPLFDWTMNPLKALYLQQRPEDETELHPTLNADDQECKRNLSDIDQSFDKVAERVLMRLQEKLKGVEEGTVLSVGGQVNLLIQQAIDPKNLSRLFPGWKAWV | binds |
